Test results as given in paper PMC3001195 (Structure (London, England : 1993), 2010).

Experiments:
[1] = biological target: the molecule itself; assay: negative-stain electron microscopy
[2] = biological target: the molecule itself; assay: SEC
[3] = biological target: the molecule itself; assay: crystal structure

B1: NtrC1^C,WT, central (AAA+ ATPase) domain of NtrC1 of Aquifex aeolicus (domain or fragment)
chain: RKENELLRREKDLKEEEYVFESPKMKEILEKIKKISCAECPVLITGESGVGKEVVARLIHKLSDRSKEPFVALNVASIPRDIFEAELFGYEKGAFTGAVSSKEGFFELADGGTLFLDEIGELSLEAQAKLLRVIESGKFYRLGGRKEIEVNVRILAATNRNIKELVKEGKFREDLYYRLGVIEIEIPPLRERKEDIIPLANHFLKKFSRKYAKEVEGFTKSAQELLLSYPWYGNVRELKNVIERAVLFSEGKFIDRGELSCLVNSK
Question: For B1, which “stoichiometry N” value [1] is on record?
Answer: 7

B2: NtrC1^C,R293A (domain or fragment, Aquifex aeolicus)
chain: RKENELLRREKDLKEEEYVFESPKMKEILEKIKKISCAECPVLITGESGVGKEVVARLIHKLSDRSKEPFVALNVASIPRDIFEAELFGYEKGAFTGAVSSKEGFFELADGGTLFLDEIGELSLEAQAKLLRVIESGKFYRLGGRKEIEVNVRILAATNRNIKELVKEGKFAEDLYYRLGVIEIEIPPLRERKEDIIPLANHFLKKFSRKYAKEVEGFTKSAQELLLSYPWYGNVRELKNVIERAVLFSEGKFIDRGELSCLVNSK
Question: Does B2 bind [2]?
Answer: binds

B3: NtrC1^C,E239A, Walker-B variant of the central domain of NtrC1 of Aquifex aeolicus (domain or fragment)
chain: RKENELLRREKDLKEEEYVFESPKMKEILEKIKKISCAECPVLITGESGVGKEVVARLIHKLSDRSKEPFVALNVASIPRDIFEAELFGYEKGAFTGAVSSKEGFFELADGGTLFLDAIGELSLEAQAKLLRVIESGKFYRLGGRKEIEVNVRILAATNRNIKELVKEGKFREDLYYRLGVIEIEIPPLRERKEDIIPLANHFLKKFSRKYAKEVEGFTKSAQELLLSYPWYGNVRELKNVIERAVLFSEGKFIDRGELSCLVNSK
Question: For B3, which “stoichiometry N” value [3] is on record?
Answer: 7
